From US11866731
Several values for one entry are separate records, joined by “and”; a condition that tells them apart may be missing. Equal entries are not always repeated. Where two headings read alike, the source gives them in different places.

Tests used:
[1] = biological target: CD19 (B cell surface protein) on B cells (UniProt P15391); test: cell-based or functional assay
[2] = biological target: CD19 (B cell surface protein) on B cells (UniProt P15391); test: cell-based or functional assay; remark: listed apart in the source

Sequence of UniProt P15391 (P15391 20-556 limits assumed): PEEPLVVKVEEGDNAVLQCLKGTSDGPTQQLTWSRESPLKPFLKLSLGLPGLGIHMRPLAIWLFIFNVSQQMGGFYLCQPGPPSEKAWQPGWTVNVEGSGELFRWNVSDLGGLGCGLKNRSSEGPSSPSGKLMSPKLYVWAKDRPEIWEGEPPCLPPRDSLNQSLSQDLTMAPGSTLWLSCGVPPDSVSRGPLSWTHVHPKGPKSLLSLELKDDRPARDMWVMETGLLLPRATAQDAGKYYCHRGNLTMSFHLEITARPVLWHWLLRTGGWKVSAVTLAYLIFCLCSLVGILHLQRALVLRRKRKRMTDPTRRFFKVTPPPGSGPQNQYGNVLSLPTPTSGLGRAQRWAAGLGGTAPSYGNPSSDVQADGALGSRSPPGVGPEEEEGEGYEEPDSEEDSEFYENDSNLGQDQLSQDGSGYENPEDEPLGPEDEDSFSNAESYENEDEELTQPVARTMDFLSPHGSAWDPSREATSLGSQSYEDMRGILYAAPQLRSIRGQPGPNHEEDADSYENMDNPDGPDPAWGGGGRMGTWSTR

B1: chimeric antigen receptor targeting B cell surface protein (BCAR), CD19 CAR (protein, part only; not given: transmembrane and signaling domains, part only)
chain, part: DIVLTQSPASLAMSLQLGWRPGWFLDSPDRVIGAHLIHWYQQKPGQPPKLLIYLASNLETGVPARFSGSGSGTDFTLTIDPVEEDDVAIYSCLQSRIFPRTFGGGTKLEIKGGGGSGGGGSGGGGSQIQLVQSGPELKKPGETVKISCKASGYTFTDYSINWVKRAPGKGLKWMGWINTETREPAYAYDFRGRFAFSLETSASTAYLQINNLKYEDTATYFCALDYSYAMDYWGQGTSVTVSS
- Expansion of T cells (fold, after 96 hours of co-culture with tumor cells and B cells) [1]: 23 fold
- Expansion of T cells (fold, after 4 days of co-culture with B cells and J82-NY-ESO-1-Luc cells) [2]: 12 fold and 27 fold
- Expansion of T cells (fold, after 96 hours of co-culture with tumor cells and B cells) [2]: 25 fold
- Killing of J82-NY ESO1 tumor cells by BCAR-TCR T (RTCA Cell Index), with against without B cells [2]: 1000 times
